Experiment [1] concerns the target 3f8 IgG with Fc variant 3a-11, displayed on CHO cells (human). Nature of the experiment: flow cytometry on cells. In general terms: Flow cytometry measures light scatter and fluorescence of single cells or particles in a stream.
Experiment [2] addresses 3f8 IgG with Fc variant V12, displayed on CHO cells (human). Nature of the experiment: flow cytometry on cells.
In experiment [3] the target is 3f8 IgG with Fc variant 3a-1, displayed on CHO cells (human). Nature of the experiment: flow cytometry on cells.
The target of experiment [4] is 3f8 IgG with Fc variant 3a-10, displayed on CHO cells (human). Nature of the experiment: flow cytometry on cells.
Experiment [5] concerns the target 3f8 IgG with Fc variant 3a-7, displayed on CHO cells (human). Kind of experiment: flow cytometry on cells.
The target in experiment [6] is 3f8 IgG with Fc variant 3a-4, displayed on CHO cells (human). Kind of experiment: flow cytometry on cells.
The target in experiment [7] is 3f8 IgG with Fc variant 3a-14, displayed on CHO cells (human). Nature of the experiment: flow cytometry on cells.
The target of experiment [8] is 3f8 IgG with Fc variant 3a-3, displayed on CHO cells (human). Kind of experiment: flow cytometry on cells.
In experiment [9] the target is 3f8 IgG with Fc variant 3a-9, displayed on CHO cells (human). Nature of the experiment: flow cytometry on cells.
Experiment [10] deals with 3f8 IgG with Fc variant 3a-8, displayed on CHO cells (human). Kind of experiment: flow cytometry on cells.
The target in experiment [11] is 3f8 IgG with Fc variant 3a-2, displayed on CHO cells (human). Kind of experiment: flow cytometry on cells.
For experiment [12], the target named is 3f8 IgG with Fc variant 3a-5, displayed on CHO cells (human). Kind of experiment: flow cytometry on cells.
The target in experiment [13] is 3f8 IgG with Fc variant LPL, displayed on CHO cells (human). Kind of experiment: flow cytometry on cells.
Experiment [14] concerns the target FcγRIIb extracellular domain, biotinylated (human) (UniProt P31994). Nature of the experiment: BLI. (Biolayer interferometry detects binding as a change in optical thickness at a sensor tip.)
Experiment [15] deals with FcγRIIIa-176F extracellular domain, biotinylated (human) (UniProt P08637). Nature of the experiment: BLI.
For experiment [16], the target named is FcγRIIa-131H extracellular domain, biotinylated (human) (UniProt P12318). Nature of the experiment: BLI.
The target in experiment [17] is FcγRIIa-131R extracellular domain, biotinylated (human). Nature of the experiment: BLI.
Chain of FcγRIIa-131R extracellular domain, biotinylated (human) (P12318 34-217): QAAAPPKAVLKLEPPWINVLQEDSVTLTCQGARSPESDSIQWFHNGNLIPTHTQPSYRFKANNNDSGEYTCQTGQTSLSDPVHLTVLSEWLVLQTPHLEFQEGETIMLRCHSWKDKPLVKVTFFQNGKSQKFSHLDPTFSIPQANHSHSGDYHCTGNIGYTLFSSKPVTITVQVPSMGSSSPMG
Experiment [18] concerns the target FcγRIIIa-176V extracellular domain, biotinylated (human) (UniProt P08637). Nature of the experiment: BLI.
Experiment [19] addresses FcγRIIb extracellular domain, biotinylated (human) (UniProt P31994). Kind of experiment: BLI. This is another data set of the same source.
In experiment [20] the target is FcγRIIIa-176F extracellular domain, biotinylated (human) (UniProt P08637). Nature of the experiment: BLI. This is another data set of the same source.
Experiment [21] deals with FcγRIIa-131H extracellular domain, biotinylated (human) (UniProt P12318). Kind of experiment: BLI. The source holds these as a separate data set.
Experiment [22] concerns the target FcγRIIa-131R extracellular domain, biotinylated (human). Nature of the experiment: BLI. The source holds these as a separate data set.
Experiment [23] concerns the target FcγRIIIa-176V extracellular domain, biotinylated (human) (UniProt P08637). Kind of experiment: BLI. The source holds these as a separate data set.

Where two headings read alike, the source gives them in different places.

For the substance “FcγRIIb extracellular domain, biotinylated (from UniProt P31994 43-217) (receptor)”, in experiment [1], the FcγRIIb MFI / TNFα MFI turned out to be 12.9 MFI ratio. In addition, in experiment [2], the FcγRIIb^High cells (%) is 7.39%.

“FcγRIIIa-176F extracellular domain, biotinylated (from UniProt P08637 17-208) (receptor)”: the FcγRIIIa-176F MFI / TNFα MFI was 8 MFI ratio in [3]; 6.9 MFI ratio in experiment [4]; 8.6 MFI ratio in [6]; 9.3 MFI ratio in experiment [8]; 9.2 MFI ratio in [9]; 13.2 MFI ratio in experiment [10]. For the same substance, the figures for the FcγRIIIa-176F MFI / TNFα MFI in experiment [11], in experiment [12] and in experiment [13] were 11.1 MFI ratio, 9.6 MFI ratio and 7.5 MFI ratio, respectively. Further, the FcγRIIIa-176F^High cells (%) in experiment [3] is 0.1%; in [5], 1.15%; in experiment [6], 0.93%; in [7], 1.15%; in [8], 0.81%; in experiment [10] it was 2.23%. In addition, the results for the FcγRIIIa-176F^High cells (%) in [11], in experiment [12] and in experiment [13] were 0.61%, 0.8% and 0.25%, respectively.

As to trastuzumab IgG with WT Fc (antibody), the Kd in experiment [14] was determined as 570 nM; in experiment [15], 640 nM; in experiment [16], 240 nM; in [17], 330 nM; in experiment [18], 430 nM; in experiment [19], 580 nM. Also, the Kd in experiment [20] came to 770 nM; in experiment [21], 390 nM; in experiment [22], 520 nM; in [23], 390 nM.

A word on the Kd: it is the equilibrium constant for the complex coming apart. A higher Kd goes with lower affinity.

(Values after paper PMC11259757.)
